Biological target: Trypanosoma brucei ADAT3 (full-length, His-tagged) (Trypanosoma brucei)
Experiment: cryo-EM structure

Substance: Trypanosoma brucei ADAT2 (full-length, A87G/C117S) (enzyme)
- stoichiometry N: 1

— publication doi:10.1101/2022.06.16.496122
